# Biological target: Transglutaminase 2 (TG2), wildtype, human, recombinant (human) (UniProt P21980)
# Test: SAXS
substance,measurement,value
"Transglutaminase 2 (TG2), wildtype, human, recombinant (from UniProt P21980 1-687) (enzyme)","percent dimer (initial state, t=0 ms)",61%
same,"percent monomer (initial state, t=0 ms)",39%

# Reference: PMC10871292
